The subject of this assay is Human dermal fibroblast adult (HDFa) cells. Briefly: Cell proliferation of HDFa by crystal violet staining. Format: cell-based. As to conditions: 0.02 or 0.2 ppm, 3 days at 37° C., compared to a control (FIG. 5). As to the method:
Human dermal fibroblast adult (HDFa) cells, which had been cultured to evaluate the activity of SV82 polypeptide that has been separated and purified in Example 2, were treated with SV82 polypeptide having a concentration of 0, 0.02 ppm or 0.2 ppm, and then incubated for 3 days at a temperature of 37° C. Thereafter, the cells were stained by crystal violate staining to identify whether the cells had proliferated.

B1: SV82 polypeptide (protein)
chain: MKYLLPTAAAGLLLLAAQPAMARATCAGQDQPCKETCDCCGERGECVCGGPCICRQGYFWIAWYKLANCKKLEHHHHHH
modifications: SV82
B1: the “cell proliferation of HDFa (crystal violet staining)” value is “the more HDFa cells proliferate”.

Source of the values: patent US9879060B2, “SV82 polypeptide, and cosmetic composition for reducing skin wrinkles and maintaining skin elasticity comprising SV82 polypeptide as active ingredient” (NEXGEN BIOTECHNOLOGIES, INC., priority 2015, dated 2018).
